# In article PMC3079799 (Nature chemical biology, 2011):
# T1: parathyroid hormone receptor type 1 with GFP inserted in its N-terminus (^GFPPTHR) (UniProt Q03431 27-593)
# T1 sequence: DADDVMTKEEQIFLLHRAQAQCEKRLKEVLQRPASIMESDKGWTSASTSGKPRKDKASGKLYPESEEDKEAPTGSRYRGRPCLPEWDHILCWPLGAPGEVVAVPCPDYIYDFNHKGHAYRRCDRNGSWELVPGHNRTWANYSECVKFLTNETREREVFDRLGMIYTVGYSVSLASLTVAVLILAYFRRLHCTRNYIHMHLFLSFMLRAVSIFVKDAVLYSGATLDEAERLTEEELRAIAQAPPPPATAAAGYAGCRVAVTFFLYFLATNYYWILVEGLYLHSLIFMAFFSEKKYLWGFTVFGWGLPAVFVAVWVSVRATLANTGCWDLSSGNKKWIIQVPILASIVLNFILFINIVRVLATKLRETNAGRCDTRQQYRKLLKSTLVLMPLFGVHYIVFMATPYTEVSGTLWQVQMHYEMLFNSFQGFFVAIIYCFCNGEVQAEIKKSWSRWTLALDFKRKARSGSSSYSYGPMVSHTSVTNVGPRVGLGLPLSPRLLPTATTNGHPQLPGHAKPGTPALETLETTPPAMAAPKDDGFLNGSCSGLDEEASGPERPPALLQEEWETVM
# B1: β-arrestin1 fused to tdTomato (β-arr1^tom) (natural protein)
# chain: MGDKGTRVFKKASPNGKLTVYLGKRDFVDHIDLVDPVDGVVLVDPEYLKERRVYVTLTCAFRYGREDLDVLGLTFRKDLFVANVQSFPPAPEDKKPLTRLQERLIKKLGEHAYPFTFEIPPNLPCSVTLQPGPEDTGKACGVDYEVKAFCAENLEEKIHKRNSVRLVIRKVQYAPERPGPQPTAETTRQFLMSDKPLHLEASLDKEIYYHGEPISVNVHVTNNTNKTVKKIKISVRQYADICLFNTAQYKCPVAMEEADDTVAPSSTFCKVYTLTPFLANNREKRGLALDGKLKHEDTNLASSTLLREGANREILGIIVSYKVKVKLVVSRGGLLGDLASSDVAVELPFTLMHPKPKEEPPHREVPENETPVDTNLIELDTNDDDIVFEDFARQRLKGMKDDKEEEEDGTGSPQLNNR
# Key:
# [1] = molecular target: T1, parathyroid hormone receptor type 1 …; assay: FRAP
# [2] = molecular target: T1, parathyroid hormone receptor type 1 …; assay: FRAP; remark: listed apart in the source
binder,measurement,setting,value
B1,"half-life (t1/2) of fluorescence recovery (FRAP), after M-PTH(1-28)",[1],69 ± 4.5 s
same,"half-life (t1/2) of fluorescence recovery (FRAP), after PTH(1-34)",[2],30 ± 2.5 s
